These results are taken from patent publication US8383602B2, “Use of TRIM72 as a target for muscle and heart enhancer” (Korea University Industrial & Academic Collaborative …, priority 2007, dated 2013).

Residues, ends and D or L forms follow the SMILES beside them. *: point of attachment. Cbz = O=C(OCc1ccccc1)*

Holding throughout (format): cell-based
The test system of data set [1] is TRIM72 promoter. As to the kind of experiment: TRIM72 promoter-luciferase activity during muscle differentiation, pharmacological inhibitors. Conditions: FIG. 14A. How it is done: (§1) A. CEMI promoter-luciferase fused gene having E2 and E3 was expressed in C2C12 myoblasts for 24 hours and muscle differentiation into myotubes was induced for 24 hours. While inducing muscle differentiation, PI3K inhibitor (LY294002, 10 μM), mTOR inhibitor (rapamycin, 100 nM), GSK3β inhibitor (LiCl, 5 mM) and MAPK inhibitor (PD98059, 10 μM) were treated and luciferase activity was measured. B. CEMI promoter-luciferase fused gene having E2 and E3 and MyoD gene were expressed in C2C12 myoblasts for 24 hours. After treating with various agents for 24 hours, luciferase activity was measured. C. […] After inducing muscle differentiation into myotubes for 24 hours, luciferase activity was measured. […] After inducing differentiation for 24 hours, luciferase activity was measured.
(§2) IRS-1 constructs (full-length, 1-3729; PH-PTB domain, 1-900; Mid-region, 880-2608; Rear-region, 2581-3729) and TRIM72 cDNA constructs (full-length, 1-1431; ΔRING, 181-1431; coiled-coil, 367-1020; CCSPRY, 367-1431; SPRY, 687-1431; Δcoiled-coil) were generated by PCR using the primers described in Table 1 and cloned into pCMV-Tag2B vector and pCMV-3Tag4a vector (Stratagene), respectively. […] Luciferase activity in cell lysates was measured by using the luciferase assay system (Promega) in a Luminoskan Ascent (Thermo Labsystem). […]

In data set [2] the test system is TRIM72 promoter. Put plainly: MyoD-dependent TRIM72 promoter-luciferase activity in myoblasts, pharmacological inhibitors. Conditions: agents treated 24 hours, FIG. 14B. The procedure:
as §1, §2

In data set [3] the test system is IRS-1. As to the kind of experiment: IRS-1 expression in 293 cells co-transfected with TRIM72. Conditions: IRS-1 and TRIM72 transfected, FIG. 11A. How it is done: (§3) A. IRS-1 (6 μg) and TRIM72 (2 μg) were transfected into HEK 293 cells for 30 hours and expression of IRS-1 and TRIM72 was investigated after treating with the proteosomal degradation inhibitor MG132 for 10 hours. B. IRS-1 (3 μg) and TRIM72 at various concentrations (0, 0.5, 1, 2 μg) were transfected into 293 cells for 30 hours and expression of IRS-1 was investigated. C. HA-TRIM72 (or HA-TRIM72 C14A), Flag-IRS-1 and His-ubiquitin were transfected into 293 cells for 30 hours and MG132 was treated for 10 hours. Ubiquitination of IRS-1 was identified by immunoblotting using His after immunoprecipitation with Flag antibody. Red brace denotes ubiquitination of IRS-1.
as §2
(§4) Western blotting and immunostaining were performed as described in Kim, K. B. et al. Proteomics 6, 2444-53 (2006). […] The immunoprecipitates were analyzed by Western blotting.

Data set [4] concerns C2C12 myoblasts. As to the kind of experiment: Muscle differentiation (myogenesis) after TRIM72 overexpression by adenoviral vector or TRIM72 interference by SiRNA. How it is done:
(§5) C2C12 cells were purchased from ATCC and grown in Dulbecco's modified Eagle's medium (DMEM) supplemented with 2% penicillin/streptomycin (WelGene) and 10% fetal bovine serum (WelGene) in a 5% CO2 incubator at 37° C. Confluent C2C12 myoblasts were differentiated into myotubes by incubation with DMEM supplemented with the same antibiotics and 2% horse serum. Every 48 hours, the myotubes were fed with fresh DMEM containing 2% horse serum. Male C57BL/Ksj mice were maintained on a controlled lighting schedule, with a 12-h dark period. Twenty-week-old mice were used in all of the experiments in this study.
(§6) An adenoviral vector with TRIM72 was constructed using ViraPower™ Adenoviral Expression System (Invitrogen) under control of the cytomegalovirus (CMV). Full-length-TRIM72 ORF (open reading frame) was cloned into an entry vector pENTR (Invitrogen) using the restriction enzyme sites (SalI and NotI) and homologously recombined into a destination vector pAd/CMV/V5-DEST (Invitrogen) which has the adenoviral genome and CMV promotor. The cloned TRIM72-adenoviral genome was linearlized by cutting with PacI restriction enzyme and transfected into 293A cells using a transfection agent (GenePorter II). After 10-15 days of the transfection, the supernatant comprising adenovirus was re-transfected into 293A cells to obtain the amplified adenovirus. The obtained adenovirus supernatant was purified into adenovirus particles using cessium chlororide. C2C12 myoblasts grown in 6 well plates were infected by adenovirus with the dosage of 4×10^10 VP/ml.
SiRNA oligomer targeting TRIM72 was designed from Dharmacon. Target sequence of TRIM72 is 5′-[…]-3′. The cell cultures were transfected with control RNAi and TRIM72 specific siRNA using transfection reagent (TransIT®-TKO, Mirus), which was prepared according manufacturer's instruction. Transfected cells were then transferred to media containing 2% horse serum at least for 48 h.
Western blotting and immunostaining were performed as described in Kim, K. B. et al. Proteomics 6, 2444-53 (2006). For immunoprecipitation, cells were lysed in buffer containing 20 mM Tris-HCl pH 7.4, 137 mM NaCl, 1 mM MgCl2, 1 mM CaCl2, 20 mM NaF, 10 mM Na4P2O7, 1% NP-40, 1 mM Na3VO4, 1 mM PMSF and protease inhibitor cocktail (Roche). The whole cell lysates (600 μg protein) were incubated with specific antibodies for 90 min and then with 50 μl of Protein A-sepharose or G-agarose bead (50%) slurry for 1 h. The immunoprecipitates were analyzed by Western blotting.

Data set [5] has as its system AKT. As to the kind of experiment: IGF-1-induced AKT phosphorylation after TRIM72 overexpression or knockdown. Particulars: myoblasts (overexpression) / myotubes (knockdown), FIG. 7A.
Source text: as §6
(§7) SiRNA oligomer targeting TRIM72 was designed from Dharmacon. Target sequence of TRIM72 is 5′-[…]-3′. The cell cultures were transfected with control RNAi and TRIM72 specific siRNA using transfection reagent (TransIT®-TKO, Mirus), which was prepared according manufacturer's instruction. […]
as §4

For data set [6], the system named is ERK1/2. As to the kind of experiment: IGF-1-induced ERK1/2 phosphorylation after TRIM72 overexpression or knockdown. Particulars: myoblasts (overexpression) / myotubes (knockdown), FIG. 7A.
Source text: as §6, §7, §4

For data set [7], the system named is PI3K. Put plainly: IGF-1-induced PI3K activation (PI(3)K activity of anti-p85 immunoprecipitates). Conditions: FIG. 7B.
Source text: as §6
SiRNA oligomer targeting TRIM72 was designed from Dharmacon. Target sequence of TRIM72 is 5′-[…]-3′. The cell cultures were transfected with control RNAi and TRIM72 specific siRNA using transfection reagent (TransIT®-TKO, Mirus), which was prepared according manufacturer's instruction. Transfected cells were then transferred to media containing 2% horse serum at least for 48 h. […]

For data set [8], the system named is IGFR. As to the kind of experiment: IGF-I-induced tyrosine phosphorylation of IGFR (immunoprecipitation). Particulars: FIG. 8.
Source text: as §6, §7, §4

In data set [9] the test system is IRS-1. Put plainly: IGF-I-induced tyrosine phosphorylation of IRS-1 (immunoprecipitation). Particulars: IGF-I stimulation, FIG. 8.
Source text: as §6, §7, §4

Data set [10] relates to IRS-1 with PI3K. As to the kind of experiment: Molecular association of IRS-1 with PI3K after IGF-I stimulation (immunoprecipitation). Conditions: FIG. 8.
Source text: as §6, §7, §4

The subject of data set [11] is C2C12 myoblasts. As to the kind of experiment: Muscle differentiation of C2C12 myoblasts transfected with wild type or mutant TRIM72 genes. Conditions: genes expressed in C2C12 myoblasts, differentiation induced, FIG. 10B. The procedure:
as §5
as §2, with “respectively. Alternatively, TRIM72 and TRIM72 C14A were generated by PCR reaction using the primers described in Table 1 and cloned into pHM6-HA vector, pCMV-Tag2B or pHM6 vector (Roche).” for “respectively.”

In data set [12] the test system is IRS-1. Put plainly: IRS-1 ubiquitination in 293 cells. Conditions: TRIM72, IRS-1 and ubiquitin co-expressed in 293 cells, MG132 treated, FIG. 11C. The procedure:
as §3
293T cells are transfected with pCMV-HA-TRIM72 (1 μg) or pCMV-HA-TRIM72 C14A (1 μg) and pCMV-Flag-IRS-1 (3 μg) and His-ubiquitin (3 μg) using Polyfect (Qiagen). Twenty-four hours after transfection, cells were treated with MG132 (5 μM) for 12 h. Cell lysates were immunoprecipitated with anti-Flag for 2 h. The immunoprecipitates were analyzed by Western blotting against anti-His antibody.

Data set [13] has as its system M-Cadherin. Put plainly: M-Cadherin expression after TRIM72 overexpression or Si-RNA. Particulars: FIGS. 12C-12E.
Source text: as §6, §7, §4

In the case of `O=c1cc(N2CCOCC2)oc2c(-c3ccccc3)cccc12` [LY294002], in [1] (LY294002 10 μM), the “decrease of TRIM72 transcription in IGF-I induced muscle differentiation” value is 4 times.

Regarding `[Cl-].[Li+]` [LiCl], the “change of TRIM72 transcription in IGF-I induced muscle differentiation” value in data set [1] (rapamycin 100 nM, LiCl 5 mM) is given as “no change”. Further, in [2], the “MyoD-dependent TRIM72 transcription in myoblasts” value is reported as “not affected”.

Consider `CC(C)C[C@@H](C=O)NC(=O)[C@H](CC(C)C)NC(=O)[C@H](CC(C)C)NC(=O)OCc1ccccc1` [MG132, reference compound] (Cbz-Leu-Leu-Leu-aldehyde), for which the “expression of IRS-1” value in data set [3] is listed as “expressed normally”.

B1: TRIM72: TRIM72 protein (SEQ ID NO: 1 or 2) or its gene, overexpressed via adenoviral vector or plasmid; negative regulator of muscle differentiation (protein)
chain: MSAAPGLLHQELSCPLCLQLFDAPVTAECGHSFCRACLGRVAGEPAADGTVLCPCCQAPTRPQALSTNLQLARLVEGLAQVPQGHCEEHLDPLSIYCEQDRALVCGVCASLGSHRGHRLLPAAEAHARLKTQLPQQKLQLQEACMRKEKSVAVLEHQLVEVEETVRQFRGAVGEQLGKMRVFLAALEGSLDCEAERVRGEAGVALRRELGSLNSYLEQLRQMEKVLEEVADKPQTEFLMKYCLVTSRLQKILAESPPPARLDIQLPIISDDFKFQVWRKMFRALMPALEELTFDPSSAHPSLVVSSSGRRVECSEQKAPPAGEDPRQFDKAVAVVAHQQLSEGEHYWEVDVGDKPRWALGVIAAEAPRRGRLHAVPSQGLWLLGLREGKILEAHVEAKEPRALRSPERRPTRIGLYLSFGDGVLSFYDASDADALVPLFAFHERLPRPVYPFFDVCWHDKGKNAQPLLLVGPEGAEA
modifications: left off: small tags and cut ends
notes: negative regulator of muscle differentiation
As for B1, the myogenesis entry in data set [4] (C2C12, FIG. 6A (H&E staining)) is “prevented”. Besides, the “myogenesis as determined by expression level of myogenesis marker proteins (myogenin, caveolin-3 and MyHC) and nucleus number per myotubes” value in data set [4] (C2C12, FIGS. 6C and 6D) is recorded as “completely prevented”. In addition, the “amount of MyHC” value in [4] (C2C12, MyHC staining, FIG. 6B) is “decreased”. In addition, in data set [4] (overexpression in myoblasts, FIG. 6), the fusion between cells entry is “completely inhibits”. The “IGF-1-induced AKT phosphorylation” value in data set [5] is recorded as “inhibited”. Also, the “IGF-1-induced ERK1/2 phosphorylation” value in data set [6] is listed as “not changed”. Moreover, in data set [7], the “IGF-1-induced PI3K activation” value is on record as “abrogated”. For the same molecule, in data set [8], the “tyrosine phosphorylation of IGFR induced by IGF-I” value is given as “not changed”. Also, the “tyrosine phosphorylation of IRS-1” value in data set [9] is given as “decreased”. For the same molecule, in [10], the “molecular association of IRS-1 with PI3K after IGF-I stimulation” value is “weakened”. Besides, the muscle differentiation result in [11] is recorded as “inhibited”. In addition, the “expression of IRS-1” value in [3] is “decreased”. Further, the IRS-1 ubiquitination entry in [12] is “increased”. The “expression of M-Cadherin” value in data set [13] is “decreased”.

B2: C14A TRIM72: TRIM72 mutant protein in which the 14th amino acid is substituted from cystine to alanine (protein, listed as Mus musculus)
chain: MSAAPGLLRQELSAPLCLQLFDAPVTAECGHSFCRACLIRVAGEPAADGTVACPCCQAPTRPQALSTNLQLSRLVEGLAQVPQGHCEEHLDPLSIYCEQDRTLVCGVCASLGSHRGHRLLPAAEAQARLKTQLPQQKMQLQEACMRKEKTVAVLEHQLVEVEETVRQFRGAVGEQLGKMRMFLAALESSLDREAERVRGDAGVALRRELSSLNSYLEQLRQMEKVLEEVADKPQTEFLMKFCLVTSRLQKILSESPPPARLDIQLPVISDDFKFQVWKKMFRALMPALEELTFDPSSAHPSLVVSSSGRRVECSDQKAPPAGEDTRQFDKAVAVVAQQLLSQGEHYWEVEVGDKPRWALGVMAADASRRGRLHAVPSQGLWLLGLRDGKILEAHVEAKEPRALRTPERPPARIGLYLSFADGVLAFYDASNPDVLTPIFSFHERLPGPVYPIFDVCWHDKGKNAQPLLLVGPEQEQA
modifications: or SEQ ID NO 2
notes: TRIM72 mutant protein in which the 14th amino acid is substituted from cystine to alanine
In the case of B2, in data set [11], the muscle differentiation entry is recorded as “enhanced”. Moreover, in data set [12], the IRS-1 ubiquitination result was “completely inhibited”.
